{"source": "patent US20050208610", "proteins": {"B1": {"name": "TF:VIIa complex (protein)", "chain 1": "SGTTNTVAAYNLTWKSTNFKTILEWEPKPVNQVYTVQISTKSGDWKSKCFYTTDTECDLTDEIVKDVKQTYLARVFSYPAGNVESTGSAGEPLYENSPEFTPYLETNLGQPTIQSFEQVGTKVNVTVEDERTLVRRNNTFLSLRDVFGKDLIYTLYYWKSSSSGKKTAKTNTNEFLIDVDKGENYCFSVQAVIPSRTVNRKSTDSPVECMGQEKGEFREIFYIIGAVVFVVIILVIILAISLHKCRKAGVGQSWKENSPLNVS", "chain 2": "ANAFLEELRPGSLERECKEEQCSFEEAREIFKDAERTKLFWISYSDGDQCASSPCQNGGSCKDQLQSYICFCLPAFEGRNCETHKDDQLICVNENGGCEQYCSDHTGTKRSCRCHEGYSLLADGVSCTPTVEYPCGKIPILEKRNASKPQGRIVGGKVCPKGECPWQVLLLVNGAQLCGGTLINTIWVVSAAHCFDKIKNWRNLIAVLGEHDLSEHDGDEQSRRVAQVIIPSTYVPGTTNHDIALLRLHQPVVLTDHVVPLCLPERTFSERTLAFVRFSLVSGWGQLLDRGATALELMVLNVPRLMTQDCLQQSRKVGDSPNITEYMFCAGYSDGSKDSCKGDSGGPHATHYRGTWYLTGIVSWGQGCATVGHFGVYTRVSQYIEWLQKLMRSEPRPGVLLRAPFP"}}, "key": {"[1]": {"molecular_target": "T1, peptide CR006 (amino acids 49-62)", "T1 chain": "SLKDYWSTVKDKFS"}, "[2]": {"molecular_target": "T2, peptide CR002 (amino acids 41-60)", "T2 chain": "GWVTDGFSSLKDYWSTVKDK"}}}
{"protein": "B1", "values": [{"measurement": "2-stage chromogenic substrate assay that determines TF:VIIa-mediated activation of factor X", "setting": "peptide CR003", "value": "showed no inhibitory activity in the chromogenic substrate assay"}, {"measurement": "2-stage chromogenic substrate assay that determines TF:VIIa-mediated activation of factor X", "setting": "peptide CR004", "value": "showed no inhibitory activity in the chromogenic substrate assay"}, {"measurement": "2-stage chromogenic substrate assay that determines TF:VIIa-mediated activation of factor X", "setting": "peptide CR005", "value": "showed no inhibitory activity in the chromogenic substrate assay"}, {"measurement": "2-stage chromogenic substrate assay that determines TF:VIIa-mediated activation of factor X", "setting": "[1]", "value": "Progressive loss of potency was shown as additional N-terminal residues were removed (CR006; amino acids 49-62)"}, {"measurement": "2-stage chromogenic substrate assay that determines TF:VIIa-mediated activation of factor X", "setting": "[2]", "value": "retained the ability to inhibit TF:VIIa mediated activation of factor X, but at much lower potency than the apolipoprotein CIII fragment"}]}
